From US20180049457A1, “ENZYMATIC SYNTHESIS OF SOLUBLE GLUCAN FIBER” (E I DU PONT DE NEMOURS AND COMPANY, priority 2014, published 2018)

Experiment: GTF activity of strains (PAHBAH assay)
Format: biochemical
Settings: enzyme expressed in B. subtilis host
Procedure, shortened: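 Glucosyltransferase (GTF) activity of the bacterial strains was measured with the PAHBAH assay. The enzymes tested were truncated GTF variants produced in a Bacillus subtilis expression host. Measurements were split across three separate experiments, and each activity value is reported together with the experiment it came from because results varied slightly between experiments.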

Molecule | GTF activity of strains: Acitivity (Experiment Number 1) | GTF activity of strains: Acitivity (Experiment Number 2)
GTF0974T1: T1 C-terminal truncation of GTF0974, SEQ ID NO: 136, strain SG1304 (protein, T1 C-terminal truncation of GTF0974) INGKQYYVNSDGSVRKNFVFEQDGKSYYFDAETGALATKSQDEFSTEPIKATVDFSSGNQLYKNDDKSLDQLDTFITADAWYRPKSILKDGKTWTASTEADKRPLLMVWWPDKSTQVNYLNYMQNQGLGAGSFSTNSSQESLDQAAKAVQTKIEERIAREGNTNWLRTSIDQFIKTQPGWNSSTENSSYDHLQGGQLLFNNSKGDTGNRTSHANSDYRLLNRTPTNQTGTRKYFKDNSIGGLEFLLANDIDNSNPAVQAEQLNWLHFMMNIGSIMANDPTANFDGLRVDALDNVDADLLQIASDYFKAAYGVDKSEANAIKHLSYLEAWSANDPYYNKDTKGAQLPIDNALRNALTNLLMRDKNTRMQLGDMTAFINSSLNPRGANDKNGERMANYIFTRAHDTEAQTIIQRIIRDRINPNLFGYNFTRDEIKKAFEIYNEDIDKAHKTYASYNLPSVYALMLTNKDSVTRVYYGDLYREDGHYMAKKTPYFDAIDTLLRARIKYVAGGQDMEVKKVGNDGLLTSVRYGKGANNRTDLGTSETRTQGMGVIMTNNYDFRLGSNETVTMNMGRAHRNQLYRPLLLTTKDGIATYLNDSDVPKKLLKRTDWNGNLTFNANDVFGVENVQVSGYLGVWVPYGAKANQDARTQPSNRANSDGQVYKSSAALDSQVMYEAFSNFQAFADDQPELYMNRVLAKNTDLLKAWGITSVGLPPQYVSSKDGTFLDSTIDNGYAFDDRYDMALSQNNKYGSLEDLLNVLRALHKDGIQAIADWVPDQIYNLPGKEVVNATRVNGYGNHQVGYQIIDQAYVANTRTDGTDYQGKYGGAFLDELKAKYPSIFNRVQISNGKQLPTNEKITKWSAKYFNGTNILGRGINYVLRDDKTNQYFNTSANSQLLPTPLRDTGAIT | 18.4 U/mL | 
GTF0974T2: T2 C-terminal truncation of GTF0974, SEQ ID NO: 138, strain SG1305 (protein, T2 C-terminal truncation of GTF0974) INGKQYYVNSDGSVRKNFVFEQDGKSYYFDAETGALATKSQDEFSTEPIKATVDFSSGNQLYKNDDKSLDQLDTFITADAWYRPKSILKDGKTWTASTEADKRPLLMVWWPDKSTQVNYLNYMQNQGLGAGSFSTNSSQESLDQAAKAVQTKIEERIAREGNTNWLRTSIDQFIKTQPGWNSSTENSSYDHLQGGQLLFNNSKGDTGNRTSHANSDYRLLNRTPTNQTGTRKYFKDNSIGGLEFLLANDIDNSNPAVQAEQLNWLHFMMNIGSIMANDPTANFDGLRVDALDNVDADLLQIASDYFKAAYGVDKSEANAIKHLSYLEAWSANDPYYNKDTKGAQLPIDNALRNALTNLLMRDKNTRMQLGDMTAFINSSLNPRGANDKNGERMANYIFTRAHDTEAQTIIQRIIRDRINPNLFGYNFTRDEIKKAFEIYNEDIDKAHKTYASYNLPSVYALMLTNKDSVTRVYYGDLYREDGHYMAKKTPYFDAIDTLLRARIKYVAGGQDMEVKKVGNDGLLTSVRYGKGANNRTDLGTSETRTQGMGVIMTNNYDFRLGSNETVTMNMGRAHRNQLYRPLLLTTKDGIATYLNDSDVPKKLLKRTDWNGNLTFNANDVFGVENVQVSGYLGVWVPYGAKANQDARTQPSNRANSDGQVYKSSAALDSQVMYEAFSNFQAFADDQPELYMNRVLAKNTDLLKAWGITSVGLPPQYVSSKDGTFLDSTIDNGYAFDDRYDMALSQNNKYGSLEDLLNVLRALHKDGIQAIADWVPDQIYNLPGKEVVNATRVNGYGNHQVGYQIIDQAYVANTRTDGTDYQGKYGGAFLDELKAKYPSIFNRVQISNGKQLPTNEKITKWSAKYFNGTNILGRGINYVLRDDKTNQYFNTSANSQLLPTPLRDTGAITSTQVFQRRGQDVYFLRDNQAVKNEFVQDGNGNWYYFGGDG | 7.2 U/mL | 
GTF0459nativeNT: truncated Streptococcus sp. C150 Gtf-S glucosyltransferase, SEQ ID NO: 19, strain SG1273 (protein, listed as Streptococcus sp.) MINGKQYYVNSDGSVRKNFVFEQDGKSYYFDAETGALATKSQDEFSTEPIKAAVDFSSGNQLYKNDNKSLDQLDTFITADAWYRPKSILKDGKTWTASTEADKRPLLMVWWPDKSTQVNYLNYMQNQGLGAGSFSTNSSQESLNLAAKAVQTKIEERIAREGNTNWLRTSIDQFIKTQPGWNSSTENSSYDHLQGGQLLFNNSKGDTGNRTSYANSDYRLLNRTPTNQSGTRKYFKDNSIGGLEFLLANDIDNSNPAVQAEQLNWLHFMMNIGSIMANDPTANFDGLRVDALDNVDADLLQIASDYFKAVYGVDKSEANAIKHLSYLEAWSANDPYYNKDTKGAQLPIDNALRNALTNLLMRDKNTRMQLGDMTAFMNSSLNPRGANDKNGERMANYIFTRAHDTEAQTIIQRIIRDRINPNLFGYNFTRDEIKKAFEIYNADINTAHKTYASYNLPSVYALMLTNKDSVTRVYYGDLYREDGHYMAKKTPYFDAIDTLLRARIKYVAGGQDMEVKKVGNDGLLTSVRYGKGANNSTDWGTTETRTQGMGVILTNNYDFRLGSNETVTMNMGRAHRNQLYRPLLLTTKDGLATYLNDSDVPSNLLKRTDWNGNLTFNANDVFGVENVQVSGYLGVWVPVGAKANQDARTQPSNRANSDGQVYKSSAALDSQVMYEAFSNFQAFADDQPELYMNRVLAKNTDLLKAWGVTSVGLPPQYVSSKDGTFLDSTIDNGYAFDDRYDMALSQNNKYGSLEDLLNVLRALHKDGIQAIADWVPDQIYNLPGKEVVNATRVNGYGYHQQGYQIVDQAYVANTRTDGTDYQGRYGGAFLDELKAKYPSIFNRVQISNGKQLPTNEKITKWSAKYFNGTNILGRGINYVLRDDKTNQYFNTSANGQLLPTPLRDTGAITSTQVFQRRGQDVYFLRDNQVIKNEFVQDGNGNWYYFGADGKMTKGAQNINSKDYYFFDNGVQLRNALRRASNGYTYYYGLDGAMIKNAFVDFDDKHQQVRAFTTQGTMVVGNLHWSGHHFYFDRETGIQAKDRIVRTDDGKLHYYVAQTGDMGRNVFATDSRTGKRYYFDADGNTVTGSRVIDGKTYYFNQDGSVGTAYSNRADSIIFENGKARYITPAGEIGRSIFVYNPATKAWNYFDKEGNRVTGRQYIDGNLYYFKEDGSQVKGAIVEENGIKYYYEPGSGILASGRYLQVGDDQWIYFKHDGSLAIGQVRADGGYLKYFDKNGIQVKGQTIVEDGHTYYYDADSGALVTSSFAEIAPNQWAYFNTEGQALKGKWTINGKEYYFDQNGIQYKGKAVKVGSRYKYYDENDGQPVTNRFAQIEPNVWAYFGADGYAVTGEQVINGQHLYFDQSGRQVKGAYVTVNGQRRYYDANTGEYIPGR | 26.5 U/mL | 39.4 U/mL
